Data from patent US10925928B2, “Method for treating chemotherapy-induced male infertility” (THE BOARD OF REGENTS OF THE UNIVERSITY OF TEXAS SYSTEM, priority 2013, dated 2021).
“Also recorded” adds a separate entry of the source.

Assays:
rhesus macaques [1] = conditions: 8-12 mg/kg busulfan without G-CSF; two animals; total sperm per ejaculate; cited from earlier work
C57BL/6 mice [2] = assay: Acute mouse study: immunohistochemistry of undifferentiated spermatogonia (PLZF) and apoptosis 5 days after busulfan +/- G-CSF; type: in vivo; conditions: five days after busulfan treatment
Description: (§1) FIGS. 3A-3D. This study evaluated the chronic and acute effects of G-CSF treatment on susceptibility to cytotoxic damage by busulfan alkylating chemotherapy. (A) Five-week old C57BL/6 mice were treated with a sterilizing dose of busulfan (44 mg/kg) on day 0. Some busulfan-treated mice also received injections of recombinant human G-CSF (50 μg/kg/day) on days −2 through 4 (seven days total, see group 3 in B). (B) 3 animals were used for each of three treatment groups as shown. Animals in group 1 served as an “untreated” control group (received 0.1% BSA/DPBS and DMSO vehicles only), while those in group 2, which received only busulfan (plus 0.1% BSA/DPBS vehicle), served as positive controls for busulfan cytotoxicity. Animals in the experimental group 3 received both busulfan and daily G-CSF injections. (C) 8-10 weeks after treatment, some of the mice were euthanized and testes removed for histological evaluation of spermatogenesis. (D) In an “acute” study, testes were removed on day 5 of the experiment (one day after the last G-CSF treatment, dark triangle). These testis tissues were used for immunohistochemical analysis of undifferentiated spermatogonia (PLZF) and apoptosis (activated Caspase 3 and TUNEL, see FIGS. 10-12).
FIG. 10. […] The numbers of PLZF+spermatogonia in stained testis sections from mice treated as in FIG. 3 and analyzed as in FIG. 3D are shown. […] Statistical significance was determined by student's T-test.
FIG. 11. […] Despite increased numbers of PLZF+spermatogonia in busulfan-treated animals that also received G-CSF (FIG. 10), the proportions of PLZF+spermatogonia that were positive for activated Caspase 3 (top) were not different between animals treated with G-CSF compared to busulfan alone (p=0.38).
FIG. 12. […] Despite increased numbers of PLZF+spermatogonia in busulfan-treated animals that also received G-CSF (FIG. 10), the proportions of PLZF+spermatogonia that were positive for TUNEL were not different between animals treated with G-CSF compared to busulfan alone (p=0.28).
Shown in FIG. 10 are the numbers of PLZF+spermatogonia in stained testis sections from mice treated as in FIG. 3. […] Statistical significance was determined by student's T-test.
Despite increased numbers of PLZF+spermatogonia in busulfan-treated animals that also received G-CSF, the proportions of PLZF+spermatogonia that were positive for activated Caspase 3 (FIG. 11) or TUNEL (FIG. 12) were not different between animals treated with G-CSF compared to busulfan alone (p=0.38 and p=0.28, respectively).

C57BL/6 mice [3] = assay: Mouse testis weight and histological evaluation of spermatogenesis two months after busulfan +/- G-CSF; type: in vivo
Description: as §1
FIG. 4. Mouse testis weights 2 months after busulfan treatment +/−G-CSF. Two months after treatment, testes were removed from the treated mice and weighed. […] But, testis weights from animals treated with busulfan+G-CSF were not different from those treated with busulfan+vehicle. Statistical significance was determined by a student's T-test.
FIGS. 5A-5F. […] Tiled brightfield images of H&E-stained sections of mouse testes from (A) group 1 (DMSO+vehicle), (B) group 2 (busulfan+vehicle), and (C) group 3 (busulfan+G-CSF). Dashed box inset indicates the area shown in D-F. Scale bars=500 μm. Enlarged images of the dashed boxes in A-C are shown in (D-F), respectively. Scale bars=50 μm. Filled arrowheads=seminiferous tubules with spermatogenesis. Open arrowheads=no spermatogenesis.
FIGS. 6A-6B. Quantitatively more mouse spermatogenesis was observed after busulfan treatment when mice received G-CSF treatment. Seminiferous tubule cross-sections from mice treated as shown in FIG. 5 were systematically counted and categorized as containing complete spermatogenesis (complete), up to round spermatid stage (round spermatids), up to primary spermatocytes (1° spermatocytes), or containing no spermatogenesis (empty or Sertoli cell-only). (A) The percentage of all seminiferous tubule cross-sections counted from all animals in each group which fall in the four categories is shown. […] (B) The same data presented in A are combined by group to show the percentage of seminiferous tubules containing any spermatogenesis or no spermatogenesis (empty bar segment). […] Statistically significant results (p<0.05) were determined by Tukey-Kramer ANOVA.
The results of meta-analysis of the rhesus macaque busulfan studies prompted additional studies in mice to (1) replicate the results observed in rhesus macaques and (2) determine whether G-CSF could act directly upon testicular germ cells to prevent male infertility after busulfan treatment. In the first experiment, 5 week-old C57BL/6 mice were treated with G-CSF for one week (50 μg/kg/day) and administered busulfan (44 mg/kg) on day 3 (see FIG. 3), mimicking the approach used to administer G-CSF in rhesus monkeys. Two months after completing G-CSF treatment, the mice euthanized and their testes removed. […] The testes were then analyzed histologically (FIG. 5) to determine if G-CSF treatment affected the degree of spermatogenesis after busulfan treatment. Unlike control testes, in which most tubules contained complete spermatogenesis (FIGS. 5A and D), many tubules were devoid of germ cells (empty or Sertoli cell-only) in animals treated with busulfan (FIGS. 5B-C and E-F).

rhesus macaques [4] = assay: Meta-analysis of ejaculated sperm counts in rhesus macaques after busulfan chemotherapy with or without G-CSF; type: in vivo, rhesus macaque
Source text: FIG. 1. Timeline for rhesus macaque granulocyte colony stimulating factor (G-CSF) and chemotherapy administration. FIG. 1 illustrates the timing of experimental administration of G-CSF and busulfan alkyating chemotherapy in the context of a study testing spermatogonial stem cell transplantation. Male rhesus macaques were used as recipients for spermatogonial stem cell transplantation after busulfan treatment. In order to restore the hematopoietic system after busulfan chemotherapy, autologous transplants of hematopoietic stem cells harvested from the peripheral blood (PBSCs) following G-CSF mobilization were used. Animals received daily subcutaneous injections with the cytokine G-CSF (and in some cases, also SCF) for six days to mobilize hematopoietic stem cells from the bone marrow into the general circulation. […] Animals were monitored closely for hematopoietic deficits with weekly (or more frequent) complete blood count (CBC). […] Weekly ejaculated sperm counts measured the effect of busulfan on spermatogenesis and the progression of spermatogenic recovery after transplant. […]
Animals received daily subcutaneous injections with the cytokine G-CSF for 6 days to mobilize hematopoietic stem cells from the bone marrow into the general circulation. […] Animals were monitored closely for hematopoietic deficits with weekly (or more frequent) complete blood count (CBC). […]

irradiated mice = conditions: G-CSF 100 μg/kg/day for 3 days prior to 5 Gy testicular gamma irradiation; measured 3 weeks later; cited from earlier work
[5] = 2 day pre-treatment and 5 day post-treatment with G-CSF 50 μg/kg, p<0.05 Tukey-Kramer ANOVA

## CS(=O)(=O)OCCCCOS(C)(=O)=O [busulfan, reference compound]
Rhesus macaques [1]
  loss of spermatogenesis (azoospermia), mean sperm counts: loss of spermatogenesis (azoospermia) for at least one year
C57BL/6 mice [2]; student's T-test
  numbers of PLZF+ spermatogonia per tubule, busulfan-treated groups compared with vehicle-treated animals: significantly lower
C57BL/6 mice [3]; busulfan 44 mg/kg, two months after treatment, histology of seminiferous tubule cross-sections
  spermatogenesis, busulfan alone compared to control animals: significantly less spermatogenesis
C57BL/6 mice [3]; busulfan 44 mg/kg, two months after treatment, student's T-test
  testis weights, busulfan-treated animals compared with controls: significantly smaller; also recorded: significantly reduced

## SCF: cytokine given in some cases in addition to G-CSF for mobilization of hematopoietic stem cells
Rhesus macaques [4]; one monkey of the G-CSF group, data not shown
  spermatogenic recovery, animal given SCF in addition to G-CSF compared with the other two G-CSF animals: no apparent difference in spermatogenic recovery

B1: granulocyte colony-stimulating factor (protein, UniProt P09919 31-207, looked up)
Granulocyte …: TPLGPASSLPQSFLLKCLEQVRKIQGDGAALQEKLVSECATYKLCHPEELVLLGHSLGIPWAPLSSCPSQALQLAGCLSQLHSGLFLYQGLLQALEGISPELGPTLDTLQLDVADFATTIWQQMEELGMAPALQPTQGAMPAFASAFQRRAGGVLVASHLQSFLEVSYRVLRHLAQP
notes: protein produced from the gene encoding colony-stimulating factor 3; known by trade names neupogen, neulasta, filgrastim
Rhesus macaques [4]; 8-11 mg/kg busulfan plus G-CSF mobilization and PBSC transplants, three animals, endogenous spermatogenesis
  time at which spermatogenesis recovered after busulfan treatment: ≥ 20 weeks
C57BL/6 mice [2]; early apoptosis, p=0.38
  proportion of PLZF+ spermatogonia positive for activated Caspase 3, G-CSF compared to busulfan alone: not different
C57BL/6 mice [2]; p=0.035, student's T-test
  number of PLZF+ spermatogonia per tubule cross-section, G-CSF + busulfan compared with busulfan alone: significantly higher
C57BL/6 mice [2]; late apoptosis, p=0.28
  proportion of PLZF+ spermatogonia positive for TUNEL, G-CSF compared to busulfan alone: not different
Irradiated mice
  numbers of surviving differentiated spermatogonia following sub-sterilizing irradiation: modest improvement
C57BL/6 mice [3]; [5]
  empty seminiferous tubules, G-CSF + busulfan compared with busulfan alone: significantly fewer; also recorded: significantly less
  seminiferous tubules containing complete spermatogenesis, G-CSF + busulfan compared with busulfan alone: significantly more
  tubules with any degree of spermatogenesis, G-CSF + busulfan compared with busulfan alone: significantly more
C57BL/6 mice [3]; G-CSF 50 μg/kg/day for seven days, busulfan 44 mg/kg, two months after treatment
  testis weights, busulfan + G-CSF compared with busulfan alone: not different; also recorded: did not differ significantly
C57BL/6 mice [3]; histological analysis, G-CSF 50 μg/kg/day, busulfan 44 mg/kg, two months
  recovery of spermatogenesis after busulfan treatment, G-CSF compared with controls: significantly better recovery of spermatogenesis
